This sample holds only a part of the variants without activity.
B1: TPR 5TU (parent)
chain: GGAUCUUCUCGAUCUAACAAAAAAGACAAAUCUGCCACAAAGCUUGAGAGCAUCUUCGGAUGCAGAGGCGGCAGCCUUCGGUGGCGCGAUAGCGCCAACGUUCUCAACUAUGACACGCAAAACGCGUGCUCCGUUGAAUGGAGUUUAUCAUG

Variants of: B1
Test: polymerase ribozyme fitness, log enrichment relative to wild type (log ratio); higher = more active; in vitro selection for triplet polymerase activity
Procedure, shortened: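 Only genotypes with ≥10 input reads and ≥1 read per output were kept after Illumina sequencing of input and output libraries. These libraries were PCR-built, transcribed mutants of each subunit of a heterodimeric triplet polymerase ribozyme, each put through one triplicate in vitro selection round with frozen incubation at −7 °C, gel excision of extended constructs, streptavidin-bead capture and RT-PCR. Fitness is a logarithmic ratio of genotype enrichment to wild-type enrichment, from inverse-variance-weighted replicate averages, with the logarithm in base 2.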

Row | Variant | polymerase ribozyme fitness (log ratio)
1 | GGAUCUUCUGGAUCUAAUAAAAAAGACAAAUCUGCCACAAAGCUUGAGAGCAUCUUCGUAUGCAGAGGCGGCAGCCUUCGGUGGCACGAUAGCGCCAACGUUAUCAACUAUGACACGCAAAACGCGUGCUCCGUUGAAUGGAGUUUAUCAUG | ≤ -4.2
2 | GGAUCUUCUGGAUCUAACAAAAAAGACAAAUCUGCCACAAAUCUUGAGAGCAUCUUCAGAUGCAGAGGCGGCAGCCUUCGGUGGCUCGAUAGCGCCUACGGUCUCAACUAUGACACGCAAAACGCGUGCUCCGUUGAAUGCAGUUUAUCAUG | ≤ -4.2
3 | GGAUCUUCUGGAUCUAACAAAAAAGACAAAUCUGCCACAAAGCUUGAGAGCAUCUUCGGAUGCAGAGGCGGCAGCCUUCGGUGGCGCGAUACCGCCAACGUUCUCAACUAUGACACGCAAAACGCGUGCUCCGUUGAAUGGAGUUUAUCAUG | -3.61
4 | GGAUCUUCUGGAUCUAACAAAAAAGACAAAUCUGCCACAAAGCUUGAGAGCAUCUUCGGAUGCAGAGGCGGCAGCCUUCGGUGGCGCGCUAGCGCCAACGUUCUCAACUAUGACACGCAAAACGCGUGCUCCGUUGAAUGGAGUUUACCAUG | ≤ -4.2
5 | GGAUCUUCUGGAUCUAACAAAAAAGACAAAUCUGCCAAAAAGCUUGAGAGCAUCUUCGGAUGCAGAGGCGGCAGCCUUCGGUGGCGCAAUAGCGCCUACGUUCUCAACUAUGACACGCAAAACGCGUGCUCCGUUGAAUGGAGUUUAUCAUG | ≤ -4.2
6 | GGAUCUUCUGGAUCUAACAAAAAAGACAAAUCUGCCACAAAGCUUGAGAGCAUCUUCGGAUGCAGAGGCGGCUGCAUUCGGUGGGGCGAUAGCGCCAACGUUCUCAACUAUGACACGCAAAACGCGUGCUCCGUUGAAUGGAGUUUAUCAUG | ≤ -4.2
7 | GGAUCUUCUGGAUCUAACAAAAAAGACAAAUCUGCCACAAAGCUUGAGAGCAUCUUCGGAUGCAGAGGCGGCUGCCUUCGGUGGCGCGAUAGCGCCAACGUUCUCAACUAUGACACGCAAAACGCGUUCUCCGUUGAAUGGAGUUUAUCAUG | ≤ -4.2
8 | GGAUCUUCUGGAUCUAAUAAAAAAGACAAAUCUGCCACAAAGCUUGAGAGCAUCUUCGGAUGCAGAGGCGGCAGCCUUCGGUGGGGCGAUAGCGCCAACGUUCUCAACUAUGACACGCAAAACGCGUGCUCCUUUGAGUGGAGUUUAUCAUG | ≤ -4.2
9 | GGAUCUUCUGGAUCUAACAAAAAAGACAAAUCUGCCACAAAGCUUAAGAGCAUCAUCGGAUGCAAAGGCGGCGGCCUUCGGUGGCGCGAUAGCGCCAACGUUCUCAACUAUGACACGCAAAACGCGUGCUCCGAUGAAUGGAGUUUAUCAUG | ≤ -4.2
10 | GGAUCUUCUGGAUCUAACAAAAAAGACAAAUCUGCCACAAAGCUUGAGAGCAUUUACGGAUUCAGAGGCGGCAGCCUUCGGUGGCGCGAUAGCACCAACGUUCUCAACUAUGACACGCAAAACGCGUGCUCCGUUGAAUGGAGUUUAUUAUG | ≤ -4.2
11 | GGAUCUUCUGGAUCUAACAAAAAAGACAAAUCUGCCAUAAAGCUUGAGAGCAUCUUCGGAUGCAGAGGCGGCAGCCUUCGGUGGCGAGAUAGGGCCAACGUUCUCAACUAUGACACGCAAAACGCGUGCUCCGUUGAAUGGAGUUUAUCAUG | ≤ -4.2
12 | GGAUCUUCUGGAUCUAACAAAAAAGACAAAUCUGCGACAAAGCUUGUGAGCAUCUUCGGAUGCAUAGGCGGCAGCCUUGGGUGGCGCGAUAGUGCCAAGGUUCUCAACUAUGACACGCAAAACGCCUGCUCCGUUGAAUGGAGCUUACCAUG | ≤ -4.2
13 | GGAUCUUCUGUAUCUAACAAAAAAGACAAAUAUGCCACAAAGCUUGAGAGUAUCUUCGGAUGCAGAGGCGGCAGUCUUCGGUGGCGCGAUAGUGACAACGUUCUCAACUAUGACACGCAAAACGCGUGCUCCGUUGAAUGGAGUUUAUCAUG | -4.16
14 | GGAUCUUCUGGAUCUAACAAAAAAGACAAAUCUGCCACAAAGCUUGAGAGCAUCUUCGGAUGCAGAGACGGCAGCCUUGGGUGGCGCGAUAGCGCCAACGUUCUCAACUAUGACACGCAAAACGCGUGCUCCGUUGAAUGGAGUUUAUCAUG | ≤ -4.2
15 | GGAUCUUCUGGAUCUAACAAAAAAGACAAAUCUGCCACAAAGCUUUAGAGCAUCUUCGGAUGCAGAGGCGGCAGCCUUCGGUGGCGCGAUAGCGCCAACGUUCUCAACUAUGACACGCAAAACGCGUGCUCCGUUGAAUGGACUUUACCAUG | ≤ -4.2
16 | GGAUCUUCUGGAUCUAACAAAAAAGACAAAUCUGCCACAAAGCUUGAGAGCAUCUUCGGAUGCAGAGGCGGCAGCCUUCGGUGGCGCGAUACCGCCAACGUUCUCAACUAAGAAACGCAAAACGCGUGCUCCGUUGAAUGGAGUUUAUCAUG | ≤ -4.2
17 | GGAUCUUCUGGAUCUAACAAAAAAGACAAAUCUGCCACAAAGCUUGAGAGCAUCUUCGGAUGCAGAGGCGGCAGCCUUCGGUGGCGCGAUGGCGCCGACGUUCUCAAAUAUGACACGGAAAACGCGUGCUCCGUUGAAUGGAGUUUAUCAUG | ≤ -4.2
18 | GGAUCUUCUGGAUCUAACAAAAAAGACAAAUCUGCCACAAAGCUUGAGAGCCUCUUCGGAUGCAGAGGCGGCAGCCUUCGGUGGCGCGAUAGUGCCAACGUUCUCAACUAUGACACGCAAAACGCGUGCUCCGUUGAAUGGAGUUUAUCAUG | ≤ -4.2
19 | GGAUCUUCUGGAUCUAACAAAAAAUACAAAUCUGCCACAAAGCUUGAGAGCAUCAUCGGAUGCAGAGGCGGCAGCCUUCGGUGGCGCAAUAGCGCCAACGUUCUCGACUAUGACACGCAAAACGCGUGCACCGUUGAAUGGAGUUUAUCGUG | ≤ -4.2

Reference: the RNAGym collection of RNA variant scans (doi:10.1073/pnas.2313332121)
